Measured values: patent publication US20090004210A1
Blank lines part the entries; values can stand above or below the molecule they belong to.

What was measured:
[1] = molecular target: monoclonal antibody (mAb) to detect Aβ42-derived peptide species with free N-terminus (generated in Example 1); experiment: competition ELISA: soluble peptide against plate-bound DAEFRH-C-BSA for the biotinylated mAb, FIG. 9
[2] = molecular target: monoclonal antibody (mAb) to detect Aβ42-derived peptide species with free N-terminus (generated in Example 1); experiment: competition ELISA: soluble peptide against plate-bound DAEFRH-C-BSA for the biotinylated mAb, FIG. 2
[3] = molecular target: monoclonal antibody (mAb) to detect Aβ42-derived peptide species with free N-terminus (generated in Example 1); experiment: competition ELISA: soluble peptide against plate-bound DAEFRH-C-BSA for the biotinylated mAb, FIG. 8
[4] = molecular target: monoclonal antibody (mAb) to detect Aβ42-derived peptide species with free N-terminus (generated in Example 1); experiment: competition ELISA: soluble peptide against plate-bound DAEFRH-C-BSA for the biotinylated mAb, FIG. 5
[5] = molecular target: monoclonal antibody (mAb) to detect Aβ42-derived peptide species with free N-terminus (generated in Example 1); experiment: competition ELISA: soluble peptide against plate-bound DAEFRH-C-BSA for the biotinylated mAb, FIG. 7
[6] = molecular target: monoclonal antibody (mAb) to detect Aβ42-derived peptide species with free N-terminus (generated in Example 1); experiment: competition ELISA: soluble peptide against plate-bound DAEFRH-C-BSA for the biotinylated mAb, FIG. 3
[7] = molecular target: monoclonal antibody (mAb) to detect Aβ42-derived peptide species with free N-terminus (generated in Example 1); experiment: competition ELISA: soluble peptide against plate-bound DAEFRH-C-BSA for the biotinylated mAb, FIG. 4

Molecule: Peptide 4062 DKE(Nle)R
IC50 [1]: > 0.5 µg/mL

B3: Peptide 1236 DKELKI (peptide)
peptide: DKELKIC
IC50 [4]: > 5 µg/mL

B4: Peptide 4031 DAELRY (peptide)
peptide: DAELRYC
IC50 [3]: < 0.5 µg/mL

B6: Peptide 4024 SSEFRVS (peptide)
peptide: SSEFRVSC
IC50 [5]: < 0.5 µg/mL

B8: Peptide 1237 DRELKI (peptide)
peptide: DRELKIC
IC50 [4]: > 5 µg/mL

B11: Peptide 3009 SFEFRG (peptide)
peptide: SFEFRGC
IC50 [6]: < 5 µg/mL

B12: Peptide 4002 SWEFRT (peptide)
peptide: SWEFRTC
IC50 [7]: < 0.4 µg/mL

B16: Peptide 3002 DWELRI (peptide)
peptide: DWELRIC
IC50 [2]: > 0.5 µg/mL

B20: Peptide 3001 DKELRI (peptide)
peptide: DKELRIC
IC50 [2]: < 0.5 µg/mL

B21: Peptide 4020 SWELRQA (peptide)
peptide: SWELRQAC
IC50 [5]: > 0.5 µg/mL

B25: Peptide 1241 DWEFRDA (peptide)
peptide: DWEFRDAC
IC50 [4]: < 0.5 µg/mL

B26: Peptide 4036 AYEFRH (peptide)
peptide: AYEFRHC
IC50 [3]: > 0.5 µg/mL

Results, then the molecule that gave them:

IC50 [1]: > 0.5 µg/mL
Molecule: Peptide 4064 DKE(Cha)R

IC50 [1]: > 0.5 µg/mL
Molecule: Peptide 4063 DKE(Nva)R

IC50 [2]: < 0.5 µg/mL
B1: Peptide 3007 DYEFRG (peptide)
peptide: DYEFRGC

IC50 [3]: < 0.5 µg/mL
B2: Peptide 4033 SLEFRF (peptide)
peptide: SLEFRFC

IC50 [4]: < 0.5 µg/mL
B5: Peptide 1235 DRELRI (peptide)
peptide: DRELRIC

IC50 [3]: < 0.5 µg/mL
B7: Peptide 4035 GKEFRT (peptide)
peptide: GKEFRTC

IC50 [3]: < 0.5 µg/mL
B9: Peptide 4034 GPEFRW (peptide)
peptide: GPEFRWC

IC50 [4]: < 0.5 µg/mL
B10: Peptide 1238 DKELR (peptide)
peptide: DKELRC

IC50 [5]: < 0.5 µg/mL
B13: Peptide 4023 SQEFRTP (peptide)
peptide: SQEFRTPC

IC50 [3]: < 0.5 µg/mL
B14: Peptide 4032 DWELRQ (peptide)
peptide: DWELRQC

IC50 [2]: > 0.5 µg/mL
B15: Peptide 3005 YAEFRG (peptide)
peptide: YAEFRGC

IC50 [5]: < 0.5 µg/mL
B17: Peptide 4025 DWEFRD (peptide)
peptide: DWEFRDC

IC50 [2]: < 0.5 µg/mL
B18: Peptide 3006 EAEFRG (peptide)
peptide: EAEFRGC

IC50 [5]: < 0.5 µg/mL
B19: Peptide 4021 SVEFRYH (peptide)
peptide: SVEFRYHC

IC50 [4]: > 0.5 µg/mL
B22: Peptide 1239 EYEFRG (peptide)
peptide: EYEFRGC

IC50 [6]: < 5 µg/mL
B23: Peptide 3008 ELEFRG (peptide)
peptide: ELEFRGC

IC50 [5]: < 0.5 µg/mL
B24: Peptide 4022 SYEFRHH (peptide)
peptide: SYEFRHHC
